The DeepSol protein solubility set

Test: soluble on expression in E. coli; label from the status in PepcDB or PDB records

Sequence | soluble on expression in E. coli
MCPEFQRKAAGAPRMGAMLARCVLTAALALQAAAAARAVEIEIGVASRGVVDGLEFVQFSADERTMATTHWGNVVHLWDLKTLRVRSSVSVANRDFDFDLSPDGRALAVWNEEGKGEIELYDTDNGQPARALPAPRLPQGESRRGRSLVYRDDGTLEFVSHGWIGGHARKAYLLAVPAGQPRAAETPLPALVNSVAFRKSAVMDQGRLLLAGVDGADDELAIMDIASGRMLAREPGFRIASYAADARRAVFVEADGKQRILAFDFSSRSLSTLPRWTGSGKFQPYRFVAGTRFLVLAPDEPDASTRRAAPGIYDLQTRRLHRLPPDADPGSIDVWGATASYVLCNPDHTACQAEVADLAISRKLGTFAVQPSADFRTWISPSGSMVVVGGADDGTMMVWSVKEQRVIGPNLEHHHHHH | not soluble
MAEETDVIVVGAGLSGLVAATEIADAGKRVIVVDQEGEQSVGGQAFWSFGGLFLVNSPEQRRLGIKDSFDLAMQDWLGTAGFDRDEDHWPRKWAEAYVAFAAGEKRDWLHAMGHRILPVVGWAERGGYDAMGHGNSVPRFHVTWGTGPGIVEPFERRAREAMKSGRLIFKFRHRVDALSITNGTVDGVSGAVLAPDNVERGKSSSRNVVGEFALKAQAVIVASGGIGGNHELVRQNWPKRLGEPPKFMISGVPEHVDGRMIGITEQAGARLINRDRMWHYVEGIQNWSPIWPRHGIRILPGPSSMWFDATGTRLPAPLFPGSDTLGQLKYIMSTGHDYSWFILTQSIIKKEFALSGSEQNPDLTGKSWRMTLRRATNKGAPAPVEAFKSHGVDFIVRDKIDDLVTAMNKLAGSDLLRLEHIKMQIEARDREIANPYVKDAQVMNIHNARRYIGDKLIRTASPHRILDPAHGPLIAVKLNILTRKTLGGFETDLDSRVFGGEGSIIPGLYAVGEAAGFGGGGVHGYRSLEGTFLGGCLFSGRNAGRAAAKAVG | not soluble
MGSDKIHHHHHHMLHYNALTRGCGRITLLMLGLALCQPVFAHPHSFIDMQTTVESQNDNITGLRMQWTMDPITSADLLYDAGKAKKDSEVWKKLAAEVMANVLGQHYFTDIYRDSQPVKYAPMPTEYHLSRKGNQAILEFVLPLAHPQPLAGKPLLISTYDPTYFVDMSYQNDKAVKLAPALASRCKTSLVTPKPNTELQSYALSLDKNDAPDEDMDLGKQFAQRVTLQCQ | not soluble
MSPEGAERYDRNCDHQFQKGHVLIEMMGIKKGDFVLDVGCGTGRQALNVAGIIGPAGKLTGIDPSSYRIELARKKFEGDSSGNVRFLVRQAENLQDIPDNSINHAYFCSSFHWVDDKKTALNEIFRVLRPGGKVGMTTLDRNSPNTMKALIDPILAKFGIERRHEWHRGMKKVTAPELHDLLSGAGFTSISIEPRAVPRKYNSPEEFLQHPEEKDSSRGILRDISNETLEKLRQEITEEFRKAQTPEDIGFGNITLFAIATKAQEGLEHHHHHH | not soluble
TSTMTDTVFSNSSNRWMYPSDRPLQSNDKEQLQAGWSVHPGGQPDRQRKQEELTDEEKEIINRVIARAEKMEEMEQERIGRLVDRLENMRKNVAGDGVNRCILCGEQLGMLGSACVVCEDCKKNVCTKCGVETNNRLHSVWLCKICIEQREVWKRSGAWFFKGFPKQVLPQPMPIKKTKPQQPVSEPAAPEQPAPEPKHPARAPARGDSEDRRGPGQKTGPDPASAPGRGNYGPPVRRASEARMSSSSRDSESWDHSGGAGDSSRSPAGLRRANSVQASRPAPGSVQSPAPPQPGQPGTPGGSRPGPGPAGRFPDQKPEVAPSDPGTTAPPREERTGGVGGYPAVGAREDRMSHPSGPYSQASAAAPQPAAARQPPPPEEEEEEANSYDSDEATTLGALEFSLLYDQDNSSLQCTIIKAKGLKPMDSNGLADPYVKLHLLPGASKSNKLRTKTLRNTRNPIWNETLVYHGITDEDMQRKTLRISVCDEDKFGHNEFIGETRFSLKKLKPNQRKNFNICLERVIPMKRAGTTGSARGMALYEEEQVERVGDIEERGKILVSLMYSTQQGGLIVGIIRCVHLAAMDANGYSDPFVKLWLKPDMGKKAKHKTQIKKKTLNPEFNEEFFYDIKHSDLAKKSLDISVWDYDIGKSNDYIGGCQLGISAKGERLKHWYECLKNKDKKIERWHQLQNENHVSSD | soluble
MSLTNDYRFEFRPYQRRFLRSLTTNHGKWDIREGIILRLTDETLRVGWGEIAPISWFGSETLEQVLDFCRQLPGEITDETIFSIPDELPACQFGFESAWEWGSWKWGNEFFSMPNAQCPMPNAQSFSALLPFGEAALNQWETLWQKGYRTFKWKIGVDAIADELKIFESLTRILPASTKLRLDANGGLSYEEANLWLRTCDNLKANAELPLEIEFIEQPLPVEQFQQMLELSTSYETAIALDESVATLKQLAACHQQGWREIFVIKPGIVGSPSRLRKFCHQHQIDTVFSSVLETAIGRLAALQIAAELSRNNRAIGFGIDHFFEQEETWFQTLWNDLEGHHHHHH | soluble
MGSDKIHHHHHHMTALDDKTIVRDYFNATGFDRWSRIYGDGEVNFVQKNIRIGHQRTVDTVLSWLEADGNLSDRSFCDAGCGVGSLSLPLAQRGAQAVYASDISAKMVEEARERASQIPNLNNIQLEVSDLASLSGRYDTVICLDVLIHYPESDAAAMLSHLCSLAEQRVLVSFAPKSPVLNVLKRIGQFFPGASKTTRAYQHSETAIAAALAANGFQVQRRAFNKAPFYFSLLLEAVRTA | not soluble
MGSDKIHHHHHHASPGPGEIANTQARHIATFFPGRMTGSPAEMLSADYLRQQFTQMGYQSDIRTFNSRFIYTTKDNRKNWHNVTGSTVIAAHEGRVPQQIIIMAHLDTYAPQSDADVDANLGGLTLQGMDDNAAGLGVMLELAARLKDIPTHYGIRFIATSGEEEGKLGAENLLKRMSDAEKKNTLLVINLDNLIVGDKLYFNSGKNTPEAVRTLTRDRALAIARRYGIAANTNPGRNPSYPKGTGCCNDAEVFDKAGISVLSVEATNWNLGKKDGYQQRVKNASFPNGNSWHDVRLDNQQHIDKALPGRIERRSRDVVRIMLPLVKELAKAEKTS | not soluble
MGSDKIHHHHHHMSIEAYDQLAIFAVVARERSFTRAAARLGMSQPALSRAMRQLEERLGIRLLARTTRSVSATEAGEHLLRVVAPRFEEIDTELALLSQFRDKPAGRLRITAGEHPAVTILQPALAKILPDHPDIRVEVIVDYGLTDIVAEGYDAGVRLGEQIAKDMIAVRIGPEVRMAVVGSPDYFARHPRPRTPRDLIRHNCIAIRLPTYGGIFPWEFEKKGEELKVRVEGQLVFNNIAMRLDAALRGLGLTYMPEDLVKAHVREGVLVRVLSDWCPPIPGYHLYYPSRRQSSPAFTVLRDALRYLG | not soluble
DYKDDDDKVKLYKTNKYGTLYKSESASFTANTDIITRLTGPFRSMPQSGVLRKGLTIKYDEVMKQDGHVWVGYNTNSGKRVYLPVRTWNESTGELGPLWGTIK | soluble
MAHHHHHHMALYIIGLGLGDERDVSVKGKELIEMSDVVYLESYTSVLFVSKNTLEEFYKKNIKEVDRNLAEENCEEILKEAINKKVSFLVVGDPLCATTHHDIILRAKKKNINVQVIHNASVMSAIGESGMQLYNFGQTVSIPYFEGNYKPTSFYDKIKVNLDNNFHTLCLLDIKVKERTIENMMKNKNIYEPSRFMTVNEAIEQLLYCEEVLKKNVITDNTRGIAIVRIGSDSQQIVSGSLLALKSVSYNDPLHSLIICAPTLHDVEREYFEMYQHRC | soluble
MGSDKIHHHHHHMPKRFEWLFYAFIAFALYSCNGSSRGKGTEVETVSIDTADFNFPVRFEYAKGIQTVNHTGYKTVYIFHPDKPDTMAVYILYPRDSKRPVARHPKALYIPVPARTIACLSTTQIGSLPLLDQTDKLVGCINLKNICNADIRNRIKKGYVQEIGTGMTKNIEQIAGLRPEILLQDLFHVSDKDEELIASGINTVLYNEWKERDLLGRAEWMKLTAMLLSCNRRAHEVFEQIESEYAEARKLVAEKTDTIAIMYGQDYNGTWYLPGEYSYSTAMFRDARVSFDYAAGKVSSQPCSFEYIFSRHRHAEIWICTMMGNIKTMDEFLALNERYRHFDATQTGKVYIDRKRVNENGGNDYWESGLYRPDLLLKDIIKITRPELLPEYETSYWIELKRP | not soluble
MLFNLLGKPLKICGCSPRTGWYLDGYCKTDQSDLGNHSICSVVTDTFLKYTKSQGNNLIDPNLLMEFPGLKAGDHWCLCAERWEQARIDGVAPPIIIESTNLSATQVIPLNILKSFAFEII | not soluble
